Test results: PMC5227068

Columns and labels:
[1] = molecular target: recombinant human CD36 (human), P16671; experiment: BLI; Octet Qke; hisCD36 immobilised on Ni-NTA biosensors, CIDR domains in solution; kinetics buffer (PBS, 0.02% Tween-20, 100 μg/ml bovine serum albumin, 0.005% sodium azide); association 600 or 900 s, dissociation 300 to 600 s; 1:1 fit
[2] = molecular target: recombinant human CD36 (human), P16671; experiment: BLI; Octet Qke; hisCD36 immobilised on Ni-NTA biosensors, CIDR domain in kinetics buffer (PBS, 0.02% Tween-20, 100 ug/ml BSA, 0.005% sodium azide); association 600 or 900 s, dissociation 300 to 600 s; double-reference subtracted data fitted to a 1:1 binding model

recombinant human CD36 (human), P16671, sequence (P16671 whole entry, the tested form may be a part): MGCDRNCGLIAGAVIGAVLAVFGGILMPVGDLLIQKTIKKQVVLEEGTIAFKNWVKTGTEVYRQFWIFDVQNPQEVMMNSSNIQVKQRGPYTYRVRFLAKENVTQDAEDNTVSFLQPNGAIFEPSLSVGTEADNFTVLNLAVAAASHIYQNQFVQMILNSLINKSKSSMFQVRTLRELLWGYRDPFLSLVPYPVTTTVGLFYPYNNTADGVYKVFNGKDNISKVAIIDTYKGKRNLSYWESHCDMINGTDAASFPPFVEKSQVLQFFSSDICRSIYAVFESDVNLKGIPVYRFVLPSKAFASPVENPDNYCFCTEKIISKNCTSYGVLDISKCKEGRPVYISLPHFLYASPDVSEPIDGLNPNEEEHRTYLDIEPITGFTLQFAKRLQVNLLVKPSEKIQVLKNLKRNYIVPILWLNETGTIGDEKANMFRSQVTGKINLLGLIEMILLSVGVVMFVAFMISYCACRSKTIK

B1: P. reichenowi var85 CIDRα5 (domain or fragment)
chain: PECGVVRNGGTFQKNDEKEGDCSGKNEEYKPPEGVTEHDINFLYSGEGHEDMTKKLSGFCKKPEDKKGTRNEQWKCYYEKAENNMCKMTNKGANDNEHAKMMSFNDFFNFWVSHLLTDTINWRKELNRCIKASKSETCEKKCNKNCKCFQKWIEKKKVEWEEVKDQYDEQKDMDIFNPYWILEYDLEEQLLPIMEKNNSDLELIGKMKEIIGKNYKNKELKRTDVNAIDILLKHELKDATTCVENDPQENC
modifications: not checked
With B1 the Kd [1] was 1.7 nM, the koff [2] was 3.42e-05 s⁻¹ and the kon [2] was 19800 M⁻¹ s⁻¹.
